# Reference: the supplement of paper PMC12042874
# ± gives the uncertainty stated by the source.
# Assay: amyloid nucleation score (Sup35N fusion, yeast selection) (log enrichment); library NNK3; higher = more nucleation; inactive = no reads after selection
# Outline: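 Psi-negative yeast expressed Sup35N fused to peptides of 20 random codons. They were induced 24 hours with 100 μM copper sulfate, grown 7 days at 30°C without adenine and uracil, and their plasmid inserts from input and output were Illumina-sequenced. The nucleation score is the DiMSum log enrichment of output over input reads, centred on the mode score of non-aggregating sequences. Sequences with under 100 input reads were excluded.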
row,Substance,amyloid nucleation score
1,VRISMRDMVWSRFWLPVVLK,inactive
2,SFLDMIRCDINLIYKRHRLG,inactive
3,GSFMDHKTR,-0.382 ± 1.1
4,MLLFHLVVQLNDLLSAPLRA,inactive
5,EFMILDLCMG,inactive
6,IYPMLW,-0.428 ± 0.62
7,SVDVMTGLPTWSYLCDDETR,2.2 ± 0.06
8,GWKLSSVGNKRDCSSMHVDR,0.101 ± 0.19
9,MYLPWISSSGVLNRTSMSFY,0.668 ± 0.12
10,HAMCHVVGTRISGYLCAYGT,inactive
11,GLLMSMRSFFSGQVQNGAVL,inactive
12,ILVYLASLVTNFNYVHIPLG,0.969 ± 0.18
13,RLSSLPHCVIM,inactive
14,WDHTA,inactive
15,ESYINLDIHNYIKTIILSLA,inactive
16,FFLIDYIYWVGIFNYSLILV,inactive
17,SFSRPVHSWAGHY,inactive
18,SSLETLSSLFLIRLMELVSR,inactive
19,LYLRV,inactive
20,AYSRIHSWRMVCKRSNNGVG,1.41 ± 0.1
21,GWLKNNYSTYDTEKKFTATF,inactive
22,EMSAMRCILLMRVDPICSLS,inactive
23,SNVVYMKYRMAVLVTLGICG,inactive

row,Substance,amyloid nucleation score
1,YGSYVWYSLLVREWLNSPGY,inactive
2,SLYVHRSIANGF,inactive
3,CRNKFLVKGAFTRGSREN,inactive
4,VDKQPDLIAHRMWTKVG,inactive
5,GSSDNGFFCSLNMN,inactive
6,NSYFGMWVITGFFLASMCIR,inactive
7,YSMRRTDIHPVVFRQ,inactive
8,MVRMDHCQVEDSMVTNVD,inactive
9,MILCLLRKAQFCY,inactive
10,SFFTGKAKGFYRQALRTYYR,-0.093 ± 0.59
11,KFKSRGRSTMLLVFNIVWRV,-0.476 ± 0.42
12,QLFTVTLQLTLLSKIDTANL,1.03 ± 0.13
13,GVNDRGNKRYAPYKTWLRLE,inactive
14,VYVAYALFRRD,-0.333 ± 0.9
15,ILLLRGDGEACFNRVNDNSF,inactive
16,CSEVFTSNWAYETASNCKRV,1.08 ± 0.12
17,SDTLYFVCSVTWQRFYKMID,inactive
18,TNYYFALLGYYHLFSSTGHR,2.66 ± 0.064
19,YPRPLFVRNLDVFHWLYTAV,inactive
20,PPRSSLFTFNIFKYNNLYNA,2.72 ± 0.066
21,IHLGMWIRKQFY,0.985 ± 0.15
22,GAGWTQAIAFIQS,inactive
23,LLAVLALVGLC,inactive

row,Substance,amyloid nucleation score
1,KRLVGLYIYTGMWLKLLQLV,inactive
2,NLKAM,inactive
3,IAYDWCQVSVTNFMSRSLMH,-0.04 ± 0.75
4,LSMLI,inactive
5,GKSSKDLHIFIMIRVWHYLT,inactive
6,GSFNFCSNAARFQ,inactive
7,YNNTVCL,inactive
8,YWSAVHEDYHTASMMEPLWW,inactive
9,GQSLLFRISLISCV,0.199 ± 0.23
10,YWDCGLCVNEMGRFICCLGG,inactive
11,CMSPYALGEISKRRVEVDSY,inactive
12,WIKVDTPFEGFVRYAIDSGV,inactive
13,GESSP,inactive
14,TWCSIMDLLVQLRVRNLFGK,inactive
15,DSIAVCGRITPSLNLQFDMQ,inactive
16,PVSAH,1.08 ± 0.17
17,YVNECFSVSLICCYMLFYN,1.52 ± 0.072
18,VFLYTNKYRYGCCGFAFTPF,inactive
19,NVMIDDVLARYYRVRRGLVG,inactive
20,KLYNLFWNVETMVERLLLVA,inactive
21,LAGTTSASWGGS,inactive
22,QQYYVAWFCDYDLFNCMNLM,1.99 ± 0.095
23,IDRGNSNRPCPDFTDCFYGR,inactive

row,Substance,amyloid nucleation score
1,MSSPAPFWSVNSVLAIKNLF,inactive
2,MPWKSMAHFYALEFDLRCLR,0.619 ± 0.22
3,EVVITLANAEGPAEQEF,inactive
4,MALEVFF,inactive
5,YKVKIPMVCAVISGKSTWVG,inactive
6,FVLMPSSFYNYWTTSEDFRS,inactive
7,AFIFGCHNGTFKYGKYTCRG,inactive
8,SLSIMYIFTWDGPYIECTFY,2.71 ± 0.069
9,WPMMATLQYHDLLLAFLFRK,inactive
10,MVVGCCSEGV,inactive
11,FCCLEWNFIFNTSGHVSNNV,3.31 ± 0.079
12,CKCVNLQFAVTIHCGGFVPF,2.52 ± 0.072
13,FSALWTRHKWNFPRMTTFAR,inactive
14,IFSRGEGLLRRMVSL,inactive
15,HAAYGKCLQWFTRLVCYPVA,inactive
16,LWMCLLMRRR,inactive
17,NPIRGYLMYSPALSPLVG,inactive
18,TWSGQGHR,inactive
19,HGFMI,inactive
20,AWVHLPGQESGYYCCFMNEM,1.63 ± 0.12
21,SRGCRTTYRQEWECIQCLKW,inactive
22,HGSLMATGICWLGIFVSEVA,inactive
23,CLNHQASMVSTAPVEFFRFL,inactive

row,Substance,amyloid nucleation score
1,SRKALVYGSVKRLSIMSAWV,-0.626 ± 0.96
2,FKASSGWLDLWD,inactive
3,WWRDGDIRCKTSLNLGKRSF,inactive
4,TRYKELSFNTVSLVRYCAGG,inactive
5,MNFPR,inactive
6,QKIIVSR,inactive
7,CISFPDDWRSHTI,inactive
8,TWSWVVAASVKLISFKL,inactive
9,GSSTYLTDLPTSPPSVFSSL,inactive
10,LFLIGLLGRCDGDFYCIYYT,1.04 ± 0.21
11,RGDVWLELKGLFAIFCYSEL,2.96 ± 0.062
12,SGVWTF,inactive
13,ATGVMLNDDS,inactive
14,RRIASEWDLTTVPLLLV,inactive
15,YMGPKDSELDSNRAGCDMSC,inactive
16,SLFSEMSVYMQDYFWVT,inactive
17,FLLDMGVNALSW,inactive
18,YLSPVKRRYD,inactive
19,EHVWHRCTKVN,inactive
20,ILSNINFVRNSFCYYMINFI,inactive
21,KFRWVFYFGSAMEVREGSEF,-0.141 ± 0.45
22,DVMSEFLFKYWVVNQQCFTR,inactive
23,YILNITNLWSLCLCRLCRKD,3.08 ± 0.078

row,Substance,amyloid nucleation score
1,DYIEGLECVFRDPARIFLWG,-0.226 ± 1.1
2,QNSGFWIRMH,-1.38 ± 2.4
3,AVKHHSSTFIFTMGIKLLWL,inactive
4,NERFERMKRKSVQLPLYVVM,-0.009 ± 0.53
5,GVKLVPAAIVGYASLQGL,-0.375 ± 0.83
6,RCWILISANHQKDFVSHIFY,0.627 ± 0.36
7,GNISGLNLVCEPIAVGSACE,-0.962 ± 1.9
8,MWPNITLFFSWRTEVLLYLI,inactive
9,LGTPYMDMRG,1.29 ± 0.15
10,EGTRLTSYM,inactive
11,EFQNISWYTKLEGEYCGEMV,inactive
12,MVDSRLNSSLNYSLCLSDVK,inactive
13,GERHMVLSVNLRCVTVNVYW,inactive
14,STCRWLFNNA,0.257 ± 0.16
15,SVDWYNFECSIASPF,inactive
16,SNGLGLSLGNESANKEA,inactive
17,GNSVRIAWQVWCTLCMTRQW,0.356 ± 0.22
18,APDVQYFYSLQD,inactive
19,LTFSSSHCVIMWQFLCKLVG,inactive
20,YFSQVGRDCMFR,inactive
21,RGCTGIKPLPTSWACAFSTS,inactive
22,NREQLSSNKRNFASHRWTSV,inactive
23,ALFVGFRF,1.55 ± 0.12

row,Substance,amyloid nucleation score
1,GFIGECFFDHMGITFVLIET,inactive
2,SNICKLFCCTESIKSQTRLW,2.61 ± 0.082
3,CRSAVKMGVPLRILLMY,inactive
4,SEAPSSR,inactive
5,TMYIAHGELGFIRNHLDISR,1.04 ± 0.11
6,HICLA,inactive
7,YGSMMHWKSLCLSSIC,inactive
8,DQGHRNYINSPRNFLSDKSC,inactive
9,VGGQISRDNGCLSILMSFDN,inactive
10,RSQWLFISKKFDLAIYIAV,inactive
11,IRSIM,inactive
12,LLYYFYTFTQGR,-0.148 ± 0.43
13,YVCCYARNDRRFSWERRHLS,inactive
14,INYGTRQCVVQCIIVVCSLG,2.17 ± 0.068
15,AFVSPYR,inactive
16,GISILLSSYPRMCLLRLVGL,inactive
17,STLVFPLKFFELCSKD,inactive
18,LYQRYMDMTSYCS,inactive
19,YRRAREWGNDDFLNG,0.785 ± 0.12
20,IRNERRQGSCGIIISRNCYV,inactive
21,VFDYADDYYTVNGTVLSPAE,-0.283 ± 0.32
22,IWWNIYCFTVTSSVD,2.21 ± 0.095
23,HHNTYCYVLFELFTV,0.505 ± 0.49
